Measured values as given in the supplement of paper PMC10065799, “High-throughput profiling of sequence recognition by tyrosine kinases and SH2 domains using bacterial peptide display” (eLife, 2023).

Biological target: Jak2 (UniProt O60674)
Assay: phosphorylation enrichment, bacterial display (enrichment ratio); higher = better substrate or ligand; peptides without Tyr show the background
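Also: 11-residue human phosphosite peptides and single-mutation variants displayed on the E. coli surface, counted by deep sequencing, each peptide's frequency after selection divided by its frequency in the unselected input library; frequency after pTyr selection over input frequency; kinase dosed for 20-30% of maximal phosphorylation in three min.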

Sequence of Jak2 (O60674 whole entry, looked up): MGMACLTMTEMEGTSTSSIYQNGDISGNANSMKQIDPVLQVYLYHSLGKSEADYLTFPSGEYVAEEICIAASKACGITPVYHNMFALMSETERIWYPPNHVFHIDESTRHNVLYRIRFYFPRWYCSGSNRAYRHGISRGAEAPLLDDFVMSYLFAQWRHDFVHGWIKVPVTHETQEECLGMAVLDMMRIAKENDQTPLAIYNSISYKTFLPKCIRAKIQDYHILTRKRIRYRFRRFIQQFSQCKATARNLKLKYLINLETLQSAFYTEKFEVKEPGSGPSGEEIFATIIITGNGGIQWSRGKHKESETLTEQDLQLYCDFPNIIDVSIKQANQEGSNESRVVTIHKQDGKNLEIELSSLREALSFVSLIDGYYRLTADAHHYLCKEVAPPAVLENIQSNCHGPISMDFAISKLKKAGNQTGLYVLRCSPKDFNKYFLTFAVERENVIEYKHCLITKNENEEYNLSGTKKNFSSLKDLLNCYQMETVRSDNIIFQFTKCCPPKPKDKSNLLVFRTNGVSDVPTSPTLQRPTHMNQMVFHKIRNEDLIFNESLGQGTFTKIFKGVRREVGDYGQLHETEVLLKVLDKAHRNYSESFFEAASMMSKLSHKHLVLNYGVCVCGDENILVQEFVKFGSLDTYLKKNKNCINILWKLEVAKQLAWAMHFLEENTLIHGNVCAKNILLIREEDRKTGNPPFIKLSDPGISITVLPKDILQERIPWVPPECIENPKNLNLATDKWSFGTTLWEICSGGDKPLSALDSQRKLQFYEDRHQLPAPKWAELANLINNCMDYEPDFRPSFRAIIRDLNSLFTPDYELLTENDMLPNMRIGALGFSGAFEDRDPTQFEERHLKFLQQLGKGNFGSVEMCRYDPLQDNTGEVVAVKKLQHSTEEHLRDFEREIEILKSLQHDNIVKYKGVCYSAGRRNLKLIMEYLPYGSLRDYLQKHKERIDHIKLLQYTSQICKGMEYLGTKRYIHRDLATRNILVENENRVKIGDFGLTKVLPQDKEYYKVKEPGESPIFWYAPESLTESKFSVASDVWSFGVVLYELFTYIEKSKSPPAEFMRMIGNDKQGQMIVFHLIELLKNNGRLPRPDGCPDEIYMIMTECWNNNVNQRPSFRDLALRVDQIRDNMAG

Row | Sequence | phosphorylation enrichment
1 | KANEFYPVVII [ADAMTS18_Y765_L769I_YF] | 1.06
2 | DIMDLYNQPEP [IL36A_Y96] | 1.55
3 | YNNYGYGNDGF [HNRNPH3_Y161] | 0.673
4 | AVEDQYFCVDC [FHL1_Y207_YF] | 1.48
5 | EGNEQYEGFCV [GRIA3_Y451_R450Q_YF] | 1.01
6 | DHAGTYGLGDR [MAPT_Y18] | 0.507
7 | ATPKGYEPDAS [OTC_Y223] | 0.79
8 | NRVEIYDKTVE [CYFIP1_Y108_E109D] | 0.755
9 | FTRNYYVQAVL [CYBA_Y88_R90Q] | 1.06
10 | AGNPAYRSFSN [IL4R_Y497] | 0.447
11 | ENEGTYVCIAA [ADAMTSL3_Y1365_T1370A] | 1.05
12 | QYPDVYAREEV [CRX_Y67] | 5.06
13 | SLVVPYEPPEV [TP53_Y220_V216L] | 1.33
14 | PLKFLYPNIDR [STAT1_Y668_K673R_YF] | 1.06
15 | LNPDGYEKAFE [CPXM2_Y427_YF] | 0.995
16 | SAPPSHEETVA [LITAF_Y23_Y23H] | 0.817
17 | TESALYGCTIL [MAP3K21_Y724_V728I] | 1.65

Row | Sequence | phosphorylation enrichment
18 | GHLFACDWISI [BEST1_Y227_Y227C_YF] | 0.711
19 | QIGRKYKKVRF [F8_Y442_R437Q] | 1.62
20 | RREWFYEVIIV [BACE1_Y260_YF] | 0.882
21 | TLKDVYDDGKY [RPS6KA3_Y483] | 0.909
22 | PLQDVYKIGGI [EEF1A2_Y254] | 1
23 | PQEVMYAQLDH [KIR3DL2_Y398_T397M] | 1.71
24 | SVQVDYMKTIL [GLYATL2_Y127] | 0.791
25 | RQQEVYLLYKQ [RARRES1_Y159_D158V] | 1.34
26 | KERNQYGEVMV [MMP21_Y347] | 0.547
27 | DVLVEYQEEGR [GNS_Y416_G418E] | 1.05
28 | DTKPAYQNLRQ [BOD1_Y82] | 0.524
29 | SGETEYNPTEA [NBEAL2_Y2748] | 1.26
30 | RRSQSYNPTSG [PLEKHA2_Y185_I186N] | 0.809
31 | FISVGYVDDTL [HLA-B_Y51_Q56L] | 1.03
32 | EQSGSYIWVLA [DLG1_Y895_P899L] | 1.14
33 | DDKQPYEKKAA [HMGB1_Y144] | 0.851

Test system: c-Abl (mouse)
Assay: as above

Row | Sequence | phosphorylation enrichment
34 | KANEFYPVVII [ADAMTS18_Y765_L769I_YF] | 0.663
35 | DIMDLYNQPEP [IL36A_Y96] | 0.852
36 | YNNYGYGNDGF [HNRNPH3_Y161] | 0.547
37 | AVEDQYFCVDC [FHL1_Y207_YF] | 0.868
38 | EGNEQYEGFCV [GRIA3_Y451_R450Q_YF] | 0.791
39 | DHAGTYGLGDR [MAPT_Y18] | 0.442
40 | ATPKGYEPDAS [OTC_Y223] | 0.729
41 | NRVEIYDKTVE [CYFIP1_Y108_E109D] | 0.576
42 | FTRNYYVQAVL [CYBA_Y88_R90Q] | 0.813
43 | AGNPAYRSFSN [IL4R_Y497] | 0.618
44 | ENEGTYVCIAA [ADAMTSL3_Y1365_T1370A] | 1.08
45 | QYPDVYAREEV [CRX_Y67] | 3.34
46 | SLVVPYEPPEV [TP53_Y220_V216L] | 1.26
47 | PLKFLYPNIDR [STAT1_Y668_K673R_YF] | 0.891
48 | LNPDGYEKAFE [CPXM2_Y427_YF] | 1.05
49 | SAPPSHEETVA [LITAF_Y23_Y23H] | 0.489
50 | TESALYGCTIL [MAP3K21_Y724_V728I] | 1.59

Row | Sequence | phosphorylation enrichment
51 | GHLFACDWISI [BEST1_Y227_Y227C_YF] | 0.531
52 | QIGRKYKKVRF [F8_Y442_R437Q] | 0.502
53 | RREWFYEVIIV [BACE1_Y260_YF] | 0.766
54 | TLKDVYDDGKY [RPS6KA3_Y483] | 0.758
55 | PLQDVYKIGGI [EEF1A2_Y254] | 1.92
56 | PQEVMYAQLDH [KIR3DL2_Y398_T397M] | 7.37
57 | SVQVDYMKTIL [GLYATL2_Y127] | 0.642
58 | RQQEVYLLYKQ [RARRES1_Y159_D158V] | 1.13
59 | KERNQYGEVMV [MMP21_Y347] | 0.683
60 | DVLVEYQEEGR [GNS_Y416_G418E] | 0.642
61 | DTKPAYQNLRQ [BOD1_Y82] | 0.719
62 | SGETEYNPTEA [NBEAL2_Y2748] | 1.16
63 | RRSQSYNPTSG [PLEKHA2_Y185_I186N] | 0.765
64 | FISVGYVDDTL [HLA-B_Y51_Q56L] | 0.772
65 | EQSGSYIWVLA [DLG1_Y895_P899L] | 0.705
66 | DDKQPYEKKAA [HMGB1_Y144] | 0.539

Test system: c-Src
Assay: as above

Row | Sequence | phosphorylation enrichment
67 | KANEFYPVVII [ADAMTS18_Y765_L769I_YF] | 0.478
68 | DIMDLYNQPEP [IL36A_Y96] | 1.06
69 | YNNYGYGNDGF [HNRNPH3_Y161] | 0.505
70 | AVEDQYFCVDC [FHL1_Y207_YF] | 0.703
71 | EGNEQYEGFCV [GRIA3_Y451_R450Q_YF] | 0.788
72 | DHAGTYGLGDR [MAPT_Y18] | 0.533
73 | ATPKGYEPDAS [OTC_Y223] | 0.541
74 | NRVEIYDKTVE [CYFIP1_Y108_E109D] | 0.47
75 | FTRNYYVQAVL [CYBA_Y88_R90Q] | 0.538
76 | AGNPAYRSFSN [IL4R_Y497] | 0.45
77 | ENEGTYVCIAA [ADAMTSL3_Y1365_T1370A] | 1.75
78 | QYPDVYAREEV [CRX_Y67] | 3.8
79 | SLVVPYEPPEV [TP53_Y220_V216L] | 0.547
80 | PLKFLYPNIDR [STAT1_Y668_K673R_YF] | 0.55
81 | LNPDGYEKAFE [CPXM2_Y427_YF] | 0.738
82 | SAPPSHEETVA [LITAF_Y23_Y23H] | 0.404
83 | TESALYGCTIL [MAP3K21_Y724_V728I] | 6.06

Row | Sequence | phosphorylation enrichment
84 | GHLFACDWISI [BEST1_Y227_Y227C_YF] | 0.386
85 | QIGRKYKKVRF [F8_Y442_R437Q] | 1.03
86 | RREWFYEVIIV [BACE1_Y260_YF] | 0.515
87 | TLKDVYDDGKY [RPS6KA3_Y483] | 0.62
88 | PLQDVYKIGGI [EEF1A2_Y254] | 4.34
89 | PQEVMYAQLDH [KIR3DL2_Y398_T397M] | 7.15
90 | SVQVDYMKTIL [GLYATL2_Y127] | 0.446
91 | RQQEVYLLYKQ [RARRES1_Y159_D158V] | 1.41
92 | KERNQYGEVMV [MMP21_Y347] | 0.744
93 | DVLVEYQEEGR [GNS_Y416_G418E] | 0.496
94 | DTKPAYQNLRQ [BOD1_Y82] | 0.38
95 | SGETEYNPTEA [NBEAL2_Y2748] | 0.59
96 | RRSQSYNPTSG [PLEKHA2_Y185_I186N] | 0.811
97 | FISVGYVDDTL [HLA-B_Y51_Q56L] | 0.557
98 | EQSGSYIWVLA [DLG1_Y895_P899L] | 0.476
99 | DDKQPYEKKAA [HMGB1_Y144] | 0.436

Biological target: EPHB1 (UniProt P54762)
Assay: as above

Sequence of EPHB1 (P54762 whole entry, looked up): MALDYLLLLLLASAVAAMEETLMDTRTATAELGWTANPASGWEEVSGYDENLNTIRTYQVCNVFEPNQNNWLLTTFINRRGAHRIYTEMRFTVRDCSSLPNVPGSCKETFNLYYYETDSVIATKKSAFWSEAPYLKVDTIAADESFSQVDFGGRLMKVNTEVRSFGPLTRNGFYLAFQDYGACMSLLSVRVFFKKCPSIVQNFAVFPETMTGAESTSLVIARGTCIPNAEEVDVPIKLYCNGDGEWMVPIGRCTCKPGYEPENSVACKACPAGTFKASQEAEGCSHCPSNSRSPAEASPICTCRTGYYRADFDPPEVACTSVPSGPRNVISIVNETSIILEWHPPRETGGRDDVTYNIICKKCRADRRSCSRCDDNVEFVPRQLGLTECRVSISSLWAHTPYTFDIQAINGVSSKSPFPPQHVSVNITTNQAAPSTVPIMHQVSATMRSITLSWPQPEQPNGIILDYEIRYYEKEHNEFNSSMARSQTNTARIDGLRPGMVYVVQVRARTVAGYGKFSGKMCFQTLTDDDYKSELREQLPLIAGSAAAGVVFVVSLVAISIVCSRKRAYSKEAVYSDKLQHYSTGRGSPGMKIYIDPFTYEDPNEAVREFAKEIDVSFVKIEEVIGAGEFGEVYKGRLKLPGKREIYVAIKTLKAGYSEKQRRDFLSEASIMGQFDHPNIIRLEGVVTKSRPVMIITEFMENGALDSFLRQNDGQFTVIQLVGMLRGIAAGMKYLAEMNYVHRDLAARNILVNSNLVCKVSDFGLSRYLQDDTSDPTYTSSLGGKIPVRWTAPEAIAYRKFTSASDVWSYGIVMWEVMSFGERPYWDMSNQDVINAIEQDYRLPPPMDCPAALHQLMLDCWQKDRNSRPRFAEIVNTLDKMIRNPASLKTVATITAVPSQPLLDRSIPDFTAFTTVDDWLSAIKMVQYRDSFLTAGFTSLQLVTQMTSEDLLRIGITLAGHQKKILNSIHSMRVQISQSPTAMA

Row | Sequence | phosphorylation enrichment
100 | KANEFYPVVII [ADAMTS18_Y765_L769I_YF] | 0.411
101 | DIMDLYNQPEP [IL36A_Y96] | 0.547
102 | YNNYGYGNDGF [HNRNPH3_Y161] | 3.61
103 | AVEDQYFCVDC [FHL1_Y207_YF] | 1.17
104 | EGNEQYEGFCV [GRIA3_Y451_R450Q_YF] | 0.962
105 | DHAGTYGLGDR [MAPT_Y18] | 0.363
106 | ATPKGYEPDAS [OTC_Y223] | 0.439
107 | NRVEIYDKTVE [CYFIP1_Y108_E109D] | 0.495
108 | FTRNYYVQAVL [CYBA_Y88_R90Q] | 0.66
109 | AGNPAYRSFSN [IL4R_Y497] | 0.347
110 | ENEGTYVCIAA [ADAMTSL3_Y1365_T1370A] | 1.55
111 | QYPDVYAREEV [CRX_Y67] | 1.57
112 | SLVVPYEPPEV [TP53_Y220_V216L] | 0.769
113 | PLKFLYPNIDR [STAT1_Y668_K673R_YF] | 0.941
114 | LNPDGYEKAFE [CPXM2_Y427_YF] | 0.667
115 | SAPPSHEETVA [LITAF_Y23_Y23H] | 0.435
116 | TESALYGCTIL [MAP3K21_Y724_V728I] | 0.68

Row | Sequence | phosphorylation enrichment
117 | GHLFACDWISI [BEST1_Y227_Y227C_YF] | 0.408
118 | QIGRKYKKVRF [F8_Y442_R437Q] | 0.902
119 | RREWFYEVIIV [BACE1_Y260_YF] | 0.928
120 | TLKDVYDDGKY [RPS6KA3_Y483] | 0.51
121 | PLQDVYKIGGI [EEF1A2_Y254] | 2.02
122 | PQEVMYAQLDH [KIR3DL2_Y398_T397M] | 1.06
123 | SVQVDYMKTIL [GLYATL2_Y127] | 0.527
124 | RQQEVYLLYKQ [RARRES1_Y159_D158V] | 0.757
125 | KERNQYGEVMV [MMP21_Y347] | 0.455
126 | DVLVEYQEEGR [GNS_Y416_G418E] | 0.634
127 | DTKPAYQNLRQ [BOD1_Y82] | 0.38
128 | SGETEYNPTEA [NBEAL2_Y2748] | 0.729
129 | RRSQSYNPTSG [PLEKHA2_Y185_I186N] | 0.435
130 | FISVGYVDDTL [HLA-B_Y51_Q56L] | 0.738
131 | EQSGSYIWVLA [DLG1_Y895_P899L] | 0.634
132 | DDKQPYEKKAA [HMGB1_Y144] | 0.585
